Reference: publication PMC7116816 (Nature cancer, 2020)

Tests used:
[1] = target: deglycosylated human CD25 (SinoBiological) (Homo sapiens, UniProt P01589, deglycosylated with N-glycosidase F); experiment: crystal structure
[2] = target: cynomolgus CD25 on HSC-F cells (cynomolgus CD25+) (Macaca fascicularis, UniProt H6WS54); experiment: flow cytometry on cells
[3] = target: human CD25 on SU-DHL1 tumor cells (human CD25+) (Homo sapiens, UniProt P01589); experiment: flow cytometry on cells
Sequence of human CD25 on SU-DHL1 tumor cells (human CD25+) (P01589 22-272): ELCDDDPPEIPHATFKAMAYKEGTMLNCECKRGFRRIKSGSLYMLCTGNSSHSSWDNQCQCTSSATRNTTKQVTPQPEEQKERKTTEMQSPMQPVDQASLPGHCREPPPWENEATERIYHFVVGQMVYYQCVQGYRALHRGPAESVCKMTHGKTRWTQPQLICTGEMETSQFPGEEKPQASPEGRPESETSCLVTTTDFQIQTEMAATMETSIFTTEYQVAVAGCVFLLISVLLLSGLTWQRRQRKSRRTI

Sequence of deglycosylated human CD25 (SinoBiological) (P01589 22-213): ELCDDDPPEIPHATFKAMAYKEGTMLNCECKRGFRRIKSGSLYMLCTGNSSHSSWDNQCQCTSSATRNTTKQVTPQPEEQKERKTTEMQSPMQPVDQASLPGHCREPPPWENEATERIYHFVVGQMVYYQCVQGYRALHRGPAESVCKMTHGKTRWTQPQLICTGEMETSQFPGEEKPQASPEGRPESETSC

B1: Fab fragment of RG6292 (Fab, V domains shown)
VH: QVQLVQSGAEVKKPGSSVKVSCKASGGTFSSLAISWVRQAPGQGLEWMGGIIPIFGTANYAQKFQGRVTITADESTSTAYMELSSLRSEDTAVYYCARGGSVSGTLVDFDIWGQGTMVTVSS
VL: not shown
B1: binds [1].

B2: RG6292, a-fucosylated human IgG1 mAb (anti-human CD25^NIB) (antibody, V domains shown)
VH: B1 VH
VL: not shown
B2: binds [2].

B3: RG6292 (FF), the fully fucosylated version of RG6292 (antibody, V domains shown)
VH: B1 VH
VL: not shown
B3: binds [3].
